From patent publication US20250206828A1, “ANTI-ADENOSINE RECEPTOR (A2aR) ANTIBODIES AND THE USE THEREOF” (Adept Therapeutics Inc., priority 2022, published 2025) come the findings set out here.

For test [1], the system named is cynomolgus A2aR on the cell surface of cynomolgus PBMCs. Kind of test: Binding of anti-A2aR antibodies to cynomolgus PBMC subsets (CD4 T, CD8 T, NK, NKT cells; FACS). To be noted: for binding (cross-reactivity) to cynomolgus T cells (CD4+, CD8+), NK cells and NKT cells: cynomolgus PBMCs, FACS. On the procedure:
Human and cynomolgus PBMCs were purchased from Cytologics LLC (San Diego, CA) and iQ Biosciences (Berkeley, CA), respectively. 10^6 human and/or cynomolgus PBMCs in 100 μl FACS buffer (1×DPBS, 2% FBS) were incubated with anti-A2aR antibodies at 4° C. for 30 minutes. After wash, samples were stained with PE-conjugated goat-anti-human Fc antibody (1:400, Jackson ImmunoResearch Labs, Cat. 109-116-098) and other surface markers using cynomolgus cross-reactive APC/cy7-anti-CD3 (BD Bioscience, Cat. 557757), BV421-anti-CD4 (Biolegend, Cat. 317433), BV650-anti-CD8 (Biolegend, Cat. 301042) and BV711-anti-CD56 (BD Bioscience, Cat. 742661) for 30 minutes, and Zombie Green fixable Viability dye (Biolegend, Cat. 423111) were used according to manufacturer's instruction to define live immune cell subsets. After wash with FACS buffer, cells were analyzed on FACSAria (BD). Data was analyzed using Flowjo (Becton Dickinson).

For test [2], the target named is T1, human A2aR-expressing CHO cells (Homo sapiens, UniProt P29274).
T1 construct: expressed in transfected cells; host or cells: CHO
T1 sequence (P29274 whole entry): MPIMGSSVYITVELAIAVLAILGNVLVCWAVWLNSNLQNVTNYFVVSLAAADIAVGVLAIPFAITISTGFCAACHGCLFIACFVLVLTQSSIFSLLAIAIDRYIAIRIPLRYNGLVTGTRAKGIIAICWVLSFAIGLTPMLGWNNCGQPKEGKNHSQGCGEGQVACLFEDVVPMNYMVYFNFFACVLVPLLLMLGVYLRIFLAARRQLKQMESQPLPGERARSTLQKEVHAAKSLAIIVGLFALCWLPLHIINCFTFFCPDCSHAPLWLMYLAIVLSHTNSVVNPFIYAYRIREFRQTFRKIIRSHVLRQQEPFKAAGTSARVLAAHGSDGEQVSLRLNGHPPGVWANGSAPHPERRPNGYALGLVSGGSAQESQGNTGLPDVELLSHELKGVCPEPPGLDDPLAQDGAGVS
The test is described as follows: pH-sensitive dye (Zenon pHrodo iFL RED) based internalization assay. To be noted: 24 hours. It counts as cell-based. The source says:
The Invitrogen™ Zenon™ pHrodo™ iFL RED human IgG Labeling Reagents (Cat. Z25612) Z25612) is low-pH sensitive dye and was used to determine the internalizing properties of the exemplary anti-A2aR antibodies following manufacture's instruction. The internalization of antibodies coupled with the Zenon™ pHrodo™ iFL RED human IgG Labeling reagents increase the fluorescence signal at low pH intracellular compartment in a cell, providing a method for visualizing internalization under fluorescent microscopy.
Twenty-five microliters (25 μL) of 4× working solution of Zenon™ pHrodo™ iFL IgG Labeling Reagent were also prepared in freestyle CHO expression medium and then added to each well of a 96-well plate containing antibodies. The solutions in the 96-well plate were mixed and incubated for 5 minutes at room temperature to allow the labeling complexes to form. Afterwards, fifty microliters (50 μl) of 2×10^6/ml human A2aR-expressing CHO cells were added to each well containing labeled antibodies. Cells were then incubated with the labeling complex for 24 hours under standard cell culture conditions. Cells were analyzed under immunofluorescent microscope (Invitrogen EVOS cell imaging system M5000) to visualize the internalization of antibodies by cells. Internalization of antibody was imaged using EVOS imaging systems (Invitrogen).

Test [3] deals with human PBMCs (CD4 T, CD8 T, NK cells). The test is described as follows: Restoration of IFN-γ and IL-2 production of NECA-suppressed T cells and NK cells (intracellular cytokine staining). The class given is cell-based. To be noted: anti-CD3/28 Dynabeads activated, 0.1 μM NECA; for restoring IFN-γ production in human CD4 T suppressed by NECA (FIG. 5A): compared with AB928, AZD4635 and CPI-444; for restoring IL-2 production in human CD4 T suppressed by NECA (FIG. 5B): compared with AZD4635 and CPI-444.

Numbering of substitutions follows the chain as printed.

Chain of cynomolgus A2aR on the cell surface of cynomolgus PBMCs (as listed by the source): as the sequence (P29274 whole entry) above, with S263N, A371T, G379S, D407G counted along it

B1: Hu3F6-H3/Hu3F6-L5: humanized anti-A2aR IgG1 FES antibody; HCVR SEQ ID NO:60, LCVR SEQ ID NO:80 (antibody, V domains shown)
VH: EVQLVQSGAEVKKPGASVKVSCKTSGFAFTSYWMNWVRQAPGQGLEWIGRIDPSDSEAHYHHKFWGRATLTVDTSSSTVYMELSSLRSEDTAVYYCLRSLYGKGDYWGHGTTVTVSS
VL: DVVMTQTPLSLSVTPGQPASISCRSSQSLVHRNGNTYLEWYLQKPGQSPQLLIYKVSNRFSGVPDRFSGSGSGTDFTLKISRVEAEDVGVYYCYQGSHVPLTFGGGTKVEIK
Regarding B1, in test [1] (Cynomolgus 1 PBMC), the “% of A2aR+ CD4+ T cells” value was 1.65%, the “% of A2aR+ CD8+ T cells” value was 0.05%, the “% of A2aR+ NK cells” value was found to be 6.52% and the “% of A2aR+ NKT cells” value is reported as 1.06%. In test [1] (Cynomolgus 2 PBMC), the “% of A2aR+ CD4+ T cells” value worked out at 1.20%, the “% of A2aR+ CD8+ T cells” value is on record as 0.11%, the “% of A2aR+ NK cells” value is on record as 2.07% and the “% of A2aR+ NKT cells” value is 0.45%. The “binding (cross-reactivity) to cynomolgus T cells (CD4+, CD8+), NK cells and NKT cells” value in test [1] is “bound to various human and cynomolgus CD4+ and CD8+ T cells”. For the same molecule, the “induction of internalization (pHrodo fluorescence microscopy, FIG. 3)” value in test [2] is “internalization can be induced”. Further, the “restoring IFN-γ production in human CD4 T suppressed by NECA (FIG. 5A)” value (“restoring IFN-γ production” for short) in test [3] (listed as Hu3F6-VH3/Hu3F6-VL5) is on record as “higher potency in restoring IFN-γ production”. In addition, the “restoring IFN-γ production” value in test [3] (listed as Hu3F6-VH3/VL5) was “can restore the intracellular IFN gamma and IL2 production”. The “restoring IL-2 production in human CD4 T suppressed by NECA (FIG. 5B)” value in test [3] was “can restore the intracellular IFN gamma and IL2 production”.

B2: Hu3F6-H5/Hu3F6-L5: humanized anti-A2aR IgG1 FES antibody; HCVR SEQ ID NO:62, LCVR SEQ ID NO:80 (antibody, V domains shown)
VH: B1 VH with H61A, T74K
VL: B1 VL
B2: in test [1] (Cynomolgus 1 PBMC), the “% of A2aR+ CD4+ T cells” value turned out to be 4.76%, the “% of A2aR+ CD8+ T cells” value is given as 0.15%, the “% of A2aR+ NK cells” value is 5.71% and the “% of A2aR+ NKT cells” value is reported as 4.14%. For the same molecule, in test [1] (Cynomolgus 2 PBMC), the “% of A2aR+ CD4+ T cells” value is reported as 10.6%, the “% of A2aR+ CD8+ T cells” value is reported as 0.41%, the “% of A2aR+ NK cells” value was determined as 2.92% and the “% of A2aR+ NKT cells” value came out at 4.28%. Further, the “binding (cross-reactivity) to cynomolgus T cells (CD4+, CD8+), NK cells and NKT cells” value in test [1] is “bound to various human and cynomolgus CD4+ and CD8+ T cells”. The “induction of internalization (pHrodo fluorescence microscopy, FIG. 3)” value in test [2] is on record as “internalization can be induced”. For the same molecule, the “restoring IFN-γ production” value in test [3] (listed as Hu3F6-VH5/Hu3F6-VL5) is listed as “higher potency in restoring IFN-γ production”. Moreover, the “restoring IFN-γ production” value in test [3] (listed as Hu3F6-VH5/VL5) is “can restore the intracellular IFN gamma and IL2 production”. Further, the “restoring IL-2 production in human CD4 T suppressed by NECA (FIG. 5B)” value in test [3] was “can restore the intracellular IFN gamma and IL2 production”.
